Data on two substances can be found in patent US9675675B2, “Microneedle device having a peptide therapeutic agent and an amino acid, methods of making and using the same” (3M INNOVATIVE PROPERTIES COMPANY, priority 2011, dated 2017).

Series [1] is described as follows: Storage stability of lysozyme in dried coating on microneedle arrays, HPLC content. Conditions: 10 mg/mL lysozyme in PBS; for Percent of Initial Lysozyme Content in the Coating, Initial: freshly coated reference standard, about 4° C.; for Percent of Initial Lysozyme Content in the Coating, Day 1 / Percent of Initial Lysozyme Content in the Coating, Day 3 / Percent of Initial Lysozyme Content in the Coating, Day 7 / Percent of Initial Lysozyme Content in the Coating, Day 14: stored 40° C., 96% RH. In kind it is physicochemical. Here is the method: (§1) The protein or polypeptide content in the formulation coated on the microneedle arrays was determined using an Agilent 1100 HPLC system (Agilent Technologies, Wilmington, Del.) equipped with a binary pump, well-plated thermostated autosampler, thermostated column compartment, and a diode array UV detector. A Zorbax 300SB-C8 column (Agilent Technologies, Wilmington, Del.) having a 5 μm particle size and 2.1×150 mm inner diameter was used for the separations. The column was maintained at 50° C. The mobile phase consisted of two eluents. Eluent A was 0.1% TFA (trifluoroacetic acid) in water and eluent B was 0.1% TFA in acetonitrile (Spectrum Chemical, New Brunswick, N.J.). A linear gradient from 80/20 to 50/50 (A/B) was applied over 30 minutes. The flow rate was 0.4 mL/minute and the UV detection wavelength was set at 214 nm. The total run time was 34 minutes and the sample injection volume was 15 μL.
A sample formulation containing 10 mg/mL of lysozyme and 12 mg/mL of L-histidine monohydrochloride (His-HCl) in PBS was prepared. The pH of the sample formulation was 5.5-6.0. A control formulation was also prepared containing 10 mg/mL of lysozyme in PBS. […] The pH of the control formulation was 6.5. Microneedle arrays were coated with either the sample or the control formulation. The coating was applied by dropwise addition of 50 μL of the formulation to the portion of the array defined by the octagon shaped pattern of microneedles. The flood coated arrays (both sample and control formulation coated) were dried in an oven at 35° C. for about 15 hours.
After drying, the coated arrays were placed in a storage chamber that was maintained at 40° C. and 96% relative humidity (RH). The lysozyme content of the coated arrays was determined following storage in the chamber for 1, 3, 7, and 14 days. At the designated time point, an array was taken from the chamber and washed with PBS (2 mL) to remove the coating from the array. An aliquot of the resulting wash solution was analyzed for lysozyme content using the HPLC method described above. Reference standards were prepared by measuring the lysozyme content of freshly coated arrays (both sample and control formulation coated). The arrays used as reference standards were stored in a refrigerator at about 4° C. and analyzed within one day of being prepared. The percentage of undegraded lysozyme remaining in the coating at each time point was determined by measuring the peak area for lysozyme in the selected coating and dividing it by the peak area measured for lysozyme in the corresponding reference standard.
The same procedure as described in Example 7 was used with the exception that the sample formulation contained 12 mg/mL of L-arginine hydrochloride, instead of L-histidine monohydrochloride. The pH of the sample formulation was 6.5.

The nature of series [2]: Storage stability of insulin in dried coating on microneedle arrays, HPLC content. The class given is physicochemical. Conditions: 5 mg/mL insulin in 0.1 N acetic acid, pH 3.0-3.5; for Percent of Initial Insulin Content in the Coating, Initial: freshly coated reference standard, about 4° C.; for Percent of Initial Insulin Content in the Coating, Day 1 / Percent of Initial Insulin Content in the Coating, Day 3 / Percent of Initial Insulin Content in the Coating, Day 7 / Percent of Initial Insulin Content in the Coating, Day 14: stored 40° C., 96% RH. Here is the method: as §1
The pH of the sample formulation was 3.0-3.5. […] The pH of the control formulation was 3.0-3.5. Microneedle arrays were coated with either the sample or the control formulation. The coating was applied by dropwise addition of 50 μL of the formulation to the portion of the array defined by the octagon shaped pattern of microneedles. The flood coated arrays (both sample and control formulation coated) were dried in an oven at 35° C. for about 15 hours.
After drying, the coated arrays were placed in a storage chamber that was maintained at 40° C. and 96% relative humidity (RH). […] At the designated time point, an array was taken from the chamber and washed with 0.1 N acetic acid (1 mL) to remove the coating from the array. […] The arrays used as reference standards were stored in a refrigerator at about 4° C. and analyzed within one day of being prepared.
[…] The pH of the sample formulation was 3.0-3.5.

Where [3] appears, read: Amino acid: L-Arginine (12 mg/mL Arg-HCl), pH 6.5.
Where [4] appears, read: Amino acid: L-Histidine (12 mg/mL His-HCl), pH 5.5-6.0.
[5] abbreviates: Amino acid: None (control), pH 6.5.
Setting [6] is: Amino acid: L-Arginine (12 mg/mL Arg-HCl).
The mark [7] stands for this setting: Amino acid: L-Histidine (12 mg/mL His-HCl).

Regarding lysozyme, in series [1] (setting [3]), the “Percent of Initial Lysozyme Content in the Coating, Initial” value amounted to 100%; the “Percent of Initial Lysozyme Content in the Coating, Day 1” value is 52.6%; the “Percent of Initial Lysozyme Content in the Coating, Day 3” value turned out to be 33.1%; the “Percent of Initial Lysozyme Content in the Coating, Day 7” value came out at 22.4%. Moreover, the “Percent of Initial Lysozyme Content in the Coating, Day 14” value in series [1] (setting [3]) is listed as 23.0%. Moreover, in series [1] (setting [4]), the “Percent of Initial Lysozyme Content in the Coating, Initial” value was 100%; the “Percent of Initial Lysozyme Content in the Coating, Day 1” value worked out at 100.0%; the “Percent of Initial Lysozyme Content in the Coating, Day 3” value was 80.6%; the “Percent of Initial Lysozyme Content in the Coating, Day 7” value worked out at 60.1%. Besides, the “Percent of Initial Lysozyme Content in the Coating, Day 14” value in series [1] (setting [4]) turned out to be 53.3%. Also, in series [1] (setting [5]), the “Percent of Initial Lysozyme Content in the Coating, Initial” value is reported as 100%; the “Percent of Initial Lysozyme Content in the Coating, Day 1” value stood at 26.9%; the “Percent of Initial Lysozyme Content in the Coating, Day 3” value is 4.4%; the “Percent of Initial Lysozyme Content in the Coating, Day 7” value turned out to be 1.9%. The “Percent of Initial Lysozyme Content in the Coating, Day 14” value in series [1] (setting [5]) is 1.9%.

Consider Insulin, for which, in series [2] (setting [6]), the “Percent of Initial Insulin Content in the Coating, Initial” value is listed as 100%; the “Percent of Initial Insulin Content in the Coating, Day 1” value came out at 75.4%; the “Percent of Initial Insulin Content in the Coating, Day 3” value worked out at 45.9%; the “Percent of Initial Insulin Content in the Coating, Day 7” value came out at 27.1%. In series [2] (setting [7]), the “Percent of Initial Insulin Content in the Coating, Initial” value is given as 100%; the “Percent of Initial Insulin Content in the Coating, Day 1” value came out at 95.3%; the “Percent of Initial Insulin Content in the Coating, Day 3” value amounted to 93.5%; the “Percent of Initial Insulin Content in the Coating, Day 7” value is recorded as 79.2%. Moreover, in series [2] (setting [7]), the “Percent of Initial Insulin Content in the Coating, Day 14” value came to 34.9%. Also, in series [2] (Amino acid: None (control)), the “Percent of Initial Insulin Content in the Coating, Initial” value worked out at 100%; the “Percent of Initial Insulin Content in the Coating, Day 3” value is reported as 0%; the “Percent of Initial Insulin Content in the Coating, Day 7” value is 0%; the “Percent of Initial Insulin Content in the Coating, Day 14” value came to 0%.
